Key:
Assay in all cases: BLI
GP13-Fc = GP13-Fc (llama (Lama glama))
GP11-Fc = GP11-Fc (llama (Lama glama))
GP20-Fc = GP20-Fc (llama (Lama glama))
GP01-Fc = GP01-Fc (llama (Lama glama))

B1: recombinant human gp130 with His-tag (Acro, ILT-H52H2) (receptor)
chain: ELLDPCGYISPESPVVQLHSNFTAVCVLKEKCMDYFHVNANYIVWKTNHFTIPKEQYTIINRTASSVTFTDIASLNIQLTCNILTFGQLEQNVYGITIISGLPPEKPKNLSCIVNEGKKMRCEWDGGRETHLETNFTLKSEWATHKFADCKAKRDTPTSCTVDYSTVYFVNIEVWVEAENALGKVTSDHINFDPVYKVKPNPPHNLSVINSEELSSILKLTWTNPSIKSVIILKYNIQYRTKDASTWSQIPPEDTASTRSSFTVQDLKPFTEYVFRIRCMKEDGKGYWSDWSEEASGITYEDRPSKAPSFWYKIDPSHTQGYRTVQLVWKTLPPFEANGKILDYEVTLTRWKSHLQNYTVNATKLTVNLTNDRYLATLTVRNLVGKSDAAVLTIPACDFQATHPVMDLKAFPKDNMLWVEWTTPRESVKKYILEWCVLSDKAPCITDWQQEDGTVHRTYLRGNLAESKCYLITVTPVYADGPGSPESIKAYLKQAPPSKGPTVRTKKVGKNEAVLEWDQLPVDVQNGFIRNYTIFYRTIIGNETAVNVDSSHTEYTLSSLTSDTLYMVRMAAYTDEGGKDGPEFTFTTPKFAQGEIE
B1 gave a koff (GP13-Fc) of 0.00288 s⁻¹, a koff (GP11-Fc) of 0.00042 s⁻¹ and a koff (GP20-Fc) of 0.000737 s⁻¹. The koff (GP01-Fc) was 0.00223 s⁻¹.
